# Data: patent US20100280227A1 (Genentech, published 2010)
# Several values for one entry are separate records, joined by “and”; a condition that tells them apart may be missing. Equal entries are not always repeated.
# How the values were obtained:
# [1] = molecular target: T1, human BR3 expressed on cells (human, UniProt Q96RJ3 1-184); experiment: BJAB cells, competition with biotin-BAFF
# T1 construct: whole, on cells; also called BR3 on BJAB cells; cell surface BR3
# Description: (§1) The diluted samples were added to the pelleted BJAB cells in 96 well plates as described above. After 45 min incubation on ice, the cells were washed twice with 200 μl cold assay buffer, and streptavidin-HRP (AMDEX, Amersham Biosciences, Piscataway, N.J.) diluted 1/5,000 in assay buffer was added (100 μl/well). The plates were incubated for a final 45 min on ice. After washing twice with cold assay buffer, color was developed using TMB, the reaction was stopped with H₃PO₄, and the plates were read as described above.
# [2] = molecular target: T2, variant human BR3-Fc fusion; experiment: SPR, vBR3-Fc on chip;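 note: Anti-BR3 antibodies passed over chip-bound BR3-Fc in PBS with 0.05% polysorbate 20, on and off rates fitted together globally to a 1:1 binding model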
# T2 construct: produced in CHO cells; also called vBR3-Fc; vhBR3-Fc
# Description: After coupling, unoccupied sites on the chip were blocked by injecting 20 μl of 1M ethanolamine, pH 8.5. The running buffer was PBS containing 0.05% polysorbate 20. […] The binding surface was regenerated by injecting 20-30 μl of 10 mM glycine.HCl (pH 1.5). […] Data were analyzed using a 1:1 binding model using global fitting. The association and dissociation rate constants were fitted simultaneously (BIAevaluation software).
# A high flow rate was used in order to minimize mass transport effects.
# [3] = molecular target: T1, human BR3 expressed on cells; experiment: BJAB cell competitive binding assay against biotin-BAFF
# Description: BJAB cells, a human Burkitt lymphoma cell line, were cultured in RPMI media supplemented with 10% FBS, penicillin (100 U/ml, Gibco-Invitrogen, Carlsbad, Calif.), streptomycin (100 μg/ml, Gibco), and L-glutamine (10 mM). […] For binding assays, cells were washed with cold assay buffer (phosphate buffered saline (PBS), pH 7.4) containing 1% fetal bovine serum (FBS)). […] The plates containing the cells were centrifuged at 1200 rpm for 5 min at 4° C., and the supernatant was carefully aspirated away from the cell pellets. […] For these experiments, full length antibodies (IgG) were used.
# as §1
# [4] = molecular target: T2, variant human BR3-Fc fusion; experiment: competition ELISA on vhBR3-Fc against biotinylated 9.1
# [5] = molecular target: T2, variant human BR3-Fc fusion; experiment: competition ELISA on vhBR3-Fc against biotinylated 11G9
# [6] = molecular target: T1, human BR3 expressed on cells; experiment: BJAB cells, direct binding
# Description: (§2) Direct and competitive binding assays were performed as follows. For the direct binding assay, IgG antibody samples were serially diluted in cold assay buffer to concentrations ranging between 300-0.02 nM. Samples (100 μl) were added to the pelleted cells, and the plates were incubated for 45 min on ice. An additional 100 μl assay buffer was then added to each well, and the plates were centrifuged at 1200 rpm for 5 min at 4° C. After carefully aspirating the supernatant, the cells were washed two additional times with 200 μl assay buffer. An anti-mouse IgG Fc-HRP or goat anti-human IgG Fc-HRP, as appropriate, was diluted 1/10,000 in cold assay buffer was added (100 μl/well, Jackson ImmunoResearch, West Grove, Pa.), and the plates were incubated on ice for 45 min. Following two washes with 200 μl cold assay buffer, tetramethyl benzidine (TMB, Kirkegaard & Perry Laboratories, Gaithersburg, Md.) was added, and color was allowed to develop for 10 min. One hundred microliters 1 M H₃PO₄ was added to stop the reaction. The plates were then read on a microplate reader at 450 nm with a 620 nm reference. In the direct binding assay, the indicated concentrations of mAbs were added to BJAB cells and bound mAb was detected.
# [7] = molecular target: T1, human BR3 expressed on cells; experiment: BJAB cell direct binding assay, anti-mouse IgG Fc-HRP
# Description: For binding assays, cells were washed with cold assay buffer (phosphate buffered saline (PBS), pH 7.4) containing 1% fetal bovine serum (FBS)). […] The plates containing the cells were centrifuged at 1200 rpm for 5 min at 4° C., and the supernatant was carefully aspirated away from the cell pellets. […] For these experiments, full length antibodies (IgG) were used.
# as §2
# [8] = molecular target: T3, human BR3 extracellular domain (human, UniProt Q96RJ3 1-61); experiment: SPR, BR3 ECD on chip;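 note: Anti-BR3 antibodies passed over the chip at high flow in PBS with 0.05% polysorbate 20, on and off rates fitted together globally to a 1:1 binding model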
# T3 construct: biotinylated where used as tracer; also called hBR3-ECD; BR3-ECD
# [9] = molecular target: human BR3 displayed on phage, mutated at A34 in the alanine scan (human, UniProt Q96RJ3 1-61, limits assumed); experiment: shotgun alanine scan of phage-displayed BR3; F against wild type;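 note: Phage-displayed BR3 shotgun alanine libraries, two selection rounds for anti-BR3 antibody binding, normalized to a display selection, F above 1 marks a harmful substitution, below 1 a beneficial one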
# Excerpt: (§3) At the sites of mutation, wild-type codons were replaced with the corresponding shotgun alanine codon (Weiss, supra). […] Library 1 encoded shotgun codons at positions 17, 18, 20-23, 25, 27, 28, 30, and 33, while library 2 encoded shotgun codons at positions 26, 29, 31, 34, and 36-42. Each library contained 2×10⁹ members, allowing for complete representation of the theoretical diversity (>10⁴-fold excess).
# (§4) The display selection was included in order to normalize the anti-BR3 antibody-binding selection for expression differences between library members. Phage eluted from each target were propagated in E. coli XL 1-blue; amplified phage were used for selection against the same target as in the previous round. After two rounds of selection, 48 individual clones from each library and selection were grown in a 96-well format in 400 L of 2YT medium supplemented with carbenicillin and KO7 helper phage.
# (§5) F-values were calculated as previously described (Weiss, supra; Gordon, supra). […] Deleterious mutations have ratios >1, while advantageous mutations have ratios <1; boldface indicates a >10-fold effect.
# [10] = molecular target: T4, human BR3 displayed on phage, V29 alanine-scan mutant (human, UniProt Q96RJ3 1-61, limits assumed); experiment: as above
# T4 construct: One position of the shotgun alanine scan of BR3 on phage
# Excerpt: as §3, §4, §5
# [11] = molecular target: T5, human BR3 displayed on phage, R42 alanine-scan mutant (human, UniProt Q96RJ3 1-61, limits assumed); experiment: as above
# T5 construct: One position of the shotgun alanine scan of BR3 on phage
# Excerpt: as §3, §4, §5
# [12] = molecular target: T6, human BR3 displayed on phage, D26 alanine-scan mutant (human, UniProt Q96RJ3 1-61, limits assumed); experiment: as above
# T6 construct: One position of the shotgun alanine scan of BR3 on phage
# Excerpt: as §3, §4, §5
# [13] = molecular target: T7, human BR3 displayed on phage, V20 alanine-scan mutant (human, UniProt Q96RJ3 1-61, limits assumed); experiment: as above
# T7 construct: One position of the shotgun alanine scan of BR3 on phage
# Excerpt: as §3, §4, §5
# [14] = molecular target: T8, human BR3 displayed on phage, L38 alanine-scan mutant (human, UniProt Q96RJ3 1-61, limits assumed); experiment: as above
# T8 construct: One position of the shotgun alanine scan of BR3 on phage
# Excerpt: as §3, §4, §5
# [15] = molecular target: T9, human BR3 displayed on phage, P41 alanine-scan mutant (human, UniProt Q96RJ3 1-61, limits assumed); experiment: as above
# T9 construct: One position of the shotgun alanine scan of BR3 on phage
# Excerpt: as §3, §4, §5
# [16] = molecular target: T10, human BR3 displayed on phage, H31 alanine-scan mutant (human, UniProt Q96RJ3 1-61, limits assumed); experiment: as above
# T10 construct: One position of the shotgun alanine scan of BR3 on phage
# Excerpt: as §3, §4, §5
# [17] = molecular target: T11, human BR3 displayed on phage, P21 alanine-scan mutant (human, UniProt Q96RJ3 1-61, limits assumed); experiment: as above
# T11 construct: One position of the shotgun alanine scan of BR3 on phage
# Excerpt: as §3, §4, §5
# [18] = molecular target: T12, human BR3 displayed on phage, L28 alanine-scan mutant (human, UniProt Q96RJ3 1-61, limits assumed); experiment: as above
# T12 construct: One position of the shotgun alanine scan of BR3 on phage
# Excerpt: as §3, §4, §5
# [19] = molecular target: T13, human BR3 displayed on phage, T40 alanine-scan mutant (human, UniProt Q96RJ3 1-61, limits assumed); experiment: as above
# T13 construct: One position of the shotgun alanine scan of BR3 on phage
# Excerpt: as §3, §4, §5
# [20] = molecular target: T14, human BR3 displayed on phage, L27 alanine-scan mutant (human, UniProt Q96RJ3 1-61, limits assumed); experiment: as above
# T14 construct: One position of the shotgun alanine scan of BR3 on phage
# Excerpt: as §3, §4, §5
# [21] = molecular target: T15, human BR3 displayed on phage, E23 alanine-scan mutant (human, UniProt Q96RJ3 1-61, limits assumed); experiment: as above
# T15 construct: One position of the shotgun alanine scan of BR3 on phage
# Excerpt: as §3, §4, §5
# [22] = molecular target: human BR3 displayed on phage, mutated at A22 in the alanine scan (human, UniProt Q96RJ3 1-61, limits assumed); experiment: as above
# Excerpt: as §3, §4, §5
# [23] = molecular target: T16, human BR3 displayed on phage, R30 alanine-scan mutant (human, UniProt Q96RJ3 1-61, limits assumed); experiment: as above
# T16 construct: One position of the shotgun alanine scan of BR3 on phage
# Excerpt: as §3, §4, §5
# [24] = molecular target: T17, human BR3 displayed on phage, T17 alanine-scan mutant (human, UniProt Q96RJ3 1-61, limits assumed); experiment: as above
# T17 construct: One position of the shotgun alanine scan of BR3 on phage; the F value gives the effect of this change against wild type; See m1 for the parent
# Excerpt: as §3, §4, §5
# [25] = molecular target: T18, human BR3 displayed on phage, L37 alanine-scan mutant (human, UniProt Q96RJ3 1-61, limits assumed); experiment: as above
# T18 construct: One position of the shotgun alanine scan of BR3 on phage
# Excerpt: as §3, §4, §5
# [26] = molecular target: T19, human BR3 displayed on phage, P18 alanine-scan mutant (human, UniProt Q96RJ3 1-61, limits assumed); experiment: as above
# T19 construct: One position of the shotgun alanine scan of BR3 on phage
# Excerpt: as §3, §4, §5
# [27] = molecular target: T20, human BR3 displayed on phage, F25 alanine-scan mutant (human, UniProt Q96RJ3 1-61, limits assumed); experiment: as above
# T20 construct: One position of the shotgun alanine scan of BR3 on phage
# Excerpt: as §3, §4, §5
# [28] = molecular target: T21, human BR3 displayed on phage, R39 alanine-scan mutant (human, UniProt Q96RJ3 1-61, limits assumed); experiment: as above
# T21 construct: One position of the shotgun alanine scan of BR3 on phage
# Excerpt: as §3, §4, §5
# [29] = molecular target: T3, human BR3 extracellular domain; experiment: SPR, IgG on chip, BR3 ECD in solution
# [30] = molecular target: T2, variant human BR3-Fc fusion; experiment: competition ELISA on vhBR3-Fc against biotinylated 2.1
# [31] = molecular target: T22, human BR3 displayed on phage, V33 alanine-scan mutant (human, UniProt Q96RJ3 1-61, limits assumed); experiment: shotgun alanine scan of phage-displayed BR3; F against wild type;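 note: Phage-displayed BR3 shotgun alanine libraries, two selection rounds for anti-BR3 antibody binding, normalized to a display selection, F above 1 marks a harmful substitution, below 1 a beneficial one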
# T22 construct: One position of the shotgun alanine scan of BR3 on phage
# Excerpt: as §3, §4, §5
# [32] = molecular target: T23, human BR3 displayed on phage, G36 alanine-scan mutant (human, UniProt Q96RJ3 1-61, limits assumed); experiment: as above
# T23 construct: One position of the shotgun alanine scan of BR3 on phage
# Excerpt: as §3, §4, §5
# [33] = molecular target: T24, human BAFF (residues 82-285) (human, UniProt Q9Y275 82-285); experiment: BJAB cell competitive binding assay: soluble BR3-Fc keeps biotin-BAFF from BR3 on the cells
# T24 construct: range 82-285; also called biotin-BAFF; biotinylated BAFF
# T24 sequence (Q9Y275 82-285 limits assumed): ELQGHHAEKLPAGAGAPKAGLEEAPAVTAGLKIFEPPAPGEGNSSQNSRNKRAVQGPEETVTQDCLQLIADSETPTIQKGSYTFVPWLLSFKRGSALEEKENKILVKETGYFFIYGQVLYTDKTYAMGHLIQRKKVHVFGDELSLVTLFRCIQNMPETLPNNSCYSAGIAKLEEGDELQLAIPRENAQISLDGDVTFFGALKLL
Binder,IC50 [1] [nM],Kd [2],IC50 [3] [nM],IC50 (read off the curve) [5] [µg/mL],EC50 [6] [nM],EC50 [7] [nM],F value [9],F value [10],F value [11],F value [12],F value [13],F value [14],F value [15],F value [16],F value [17],F value [18],F value [19],F value [20],F value [21],F value [23],other results
"murine monoclonal antibody 9.1 (antibody, V domains shown, mouse hybridoma IgG; also called 9.1 IgG; mu9.1) VH: EVKLVESGGGLVQPGGSLRLSCAISGFTVTAYYMSWVRQPPGKALEWLGFIRDKANGYTTEYNPSVKGRFTISRDNSQSIFYLQMNTLRAEDSATYYCAQVRRALDYWGQGTTVTVSA VL: DIVMSQSPSSLAVSVGEKVTMSCKSSQSLLYSSNQNNYLAWYQQKPGQSPKLLIYWASTRESGVPDRFTGSGSGTDFTLTISSVKAEDLAVYYCQQYYTYPYTFGGGT",1.3,0.61 nM,0.86,~0.1,0.54,0.46,–,–,–,–,–,–,–,–,–,–,–,–,–,–,IC50 (read off the curve) [4]: ~0.6 µg/mL
"murine monoclonal antibody 2.1 (antibody, V domains shown, mouse hybridoma IgG; also called 2.1 IgG; mu2.1) VH: EVQLQESGPSLVKPSQTLSLTCSVTGDSITRGYWNWIRKFPGNKLEFMGYINYSGTTYYNPSLKSRISITRDTSKNQYYLQLNSVTTEDTATYYCATPHTYGAMDYWGQGTTLTVSA VL: DIVLTQSPVSLAVSLGQRATISCRASESVDDYGISFMHWYQQKPGQPPKLLIYRASDLESGIPARFSGSGSGTDFTLTINPVETDDVAIYYCQQTSKDPWTFGGGT",0.25,0.08 nM and 0.07 nM,–,~0.1,0.16,–,62,0.5,1.8,6.1,3,0.9,0.7,0.6,1.9,0.1,0.2,0.8,9.6,10,Kd [8]: 0.05 nM; koff [8]: 5.2e-05 s⁻¹; kon [8]: 960000 M⁻¹ s⁻¹; koff [2]: 3.4e-05 s⁻¹ and 3.3e-05 s⁻¹; kon [2]: 440000 M⁻¹ s⁻¹ and 470000 M⁻¹ s⁻¹; F value [22]: 3.2; F value [24]: 0.6; F value [25]: 0.1; F value [26]: 0.5; F value [27]: 49; F value [28]: 0.5; Kd [29]: 0.15 nM; koff [29]: 1.7e-05 s⁻¹; kon [29]: 110000 M⁻¹ s⁻¹; IC50 (read off the curve) [30]: ~0.6 µg/mL
"murine monoclonal antibody 11G9 (antibody, V domains shown, mouse hybridoma IgG; also called mu11G9) VH: DVQLQESGPSLVKPSQTLSLTCSVTGDSITSGYWNWIRKFPGNKLEYMGYISYSGSTYYNPSLKSRISITRDTSKNQFYLQLLSVTTEDTATYYCAGLDGLYWYFDVWGAGTLVTVSS VL: DIVMTQTPLSLPVSLGDQASISCRSSQSLVHSNGNTYLHWYLQKPGQSPKLLIYKVSNRFSGVPDRFSGSGSGTDFTLKISRVEAEDLGVYFCSQSTHVPPFTFGSGT",0.38,–,0.29,~0.2,0.19,0.17,32,1,0.9,8.5,1.1,0.9,1.7,2.8,40,0.4,0.5,1.1,6.9,1.7,F value [31]: 24; F value [24]: 0.5; F value [25]: 0.7; F value [26]: 0.5; F value [27]: 38; F value [28]: 3.1; F value [32]: 1.8
"mouse BR3-Fc (Fc fusion, (BR3 ECD fused to a murine Fc); also called mBR3-Fc; murine BR3-Fc) STGARRLRVRSQRSRDSSVPTQCNQTECFDPLVRNCVSCELFHTPDTGHTSSLEPGTALQPQEGQVTGDKKIVPRDCGCKPCICTVPEVSSVFIFPPKPKDVLTITLTPKVTCVVVDISKDDPEVQFSWFVDDVEVHTAQTQPREEQFNSTFRSVSELPIMHQDWLNGKEFKCRVNSAAFPAPIEKTISKTKGRPKAPQVYTIPPPKEQMAKDKVSLTCMITDFFPEDITVEWQWNGQPAENYKNTQPIMNTNGSYFVYSKLNVQKSNWEAGNTFTCSVLHEGLHNHHTEKSLSHSPGK",–,–,–,–,–,–,–,–,–,–,–,–,–,–,–,–,–,–,–,–,IC50 [33]: 12.7 nM; binding result [7]: no binding (tested: about 35 ng/ml as the axis is labelled)
